B3: Full-length Rpc34 protein with an N-terminal V5 epitope tag, Alexa 647-labeled (natural protein)
chain: MSGMIENGLQLSDNAKTLHSQMMSKGIGALFTQQELQKQMGIGSLTDLMSIVQELLDKNLIKLVKQNDELKFQGVLESEAQKKATMSAEEALVYSYIEASGREGIWSKTIKARTNLHQHVVLKCLKSLESQRYVKSVKSVKFPTRKIYMLYSLQPSVDITGGPWFTDGELDIEFINSLLTIVWRFISENTFPNGFKNFENGPKKNVFYAPNVKNYSTTQEILEFITAAQVANVELTPSNIRSLCEVLVYDDKLEKVTHDCYRVTLESILQMNQGEGEPEAGNKALEDEEEFSIFNYFKMFPASKHDKEVVYFDEWTI
modifications: Alexa Fluor 647 NHS Ester label (labeling efficiency ~0.8)

Legend:
[1] = target: B3; test: MST
[2] = target: T1, Rpc31(aa 121–251)_Flag_ΔS151-G164 (S. cerevisiae, UniProt P17890 121-251, ΔS151-G164); test: MST
T1 sequence: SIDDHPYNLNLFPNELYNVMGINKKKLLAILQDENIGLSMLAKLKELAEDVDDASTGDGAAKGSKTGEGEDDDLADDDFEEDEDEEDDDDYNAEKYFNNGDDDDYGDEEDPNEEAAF

[3] = target: T2, Full-length Rpc34 protein with an N-terminal V5 epitope tag, Alexa 647-labeled (S. cerevisiae, UniProt P32910 1-317, Alexa Fluor 647 NHS Ester label (labeling efficiency ~0.8)); test: MST; Alexa647-labeled Rpc34 constant at 5 nM, unlabeled Rpc31 peptides titrated (WT 1.16 μM to 0.000035 μM); 5 mM sodium phosphate pH 8.0, 0.05% Tween 20; 25°C; MST-on time 5 s; three independent measurements; conditions: both partners purified
T2 construct: Rpc34 of S. cerevisiae, full-length protein; also called Alexa647-labeled Rpc34; fluorescently-labeled Rpc34 protein; source: E. coli BL21 (DE3) RIL, purified (Ni-Sepharose, SUMO tag removed with Ulp1, second Ni-Sepharose passage)
T2 sequence (looked up): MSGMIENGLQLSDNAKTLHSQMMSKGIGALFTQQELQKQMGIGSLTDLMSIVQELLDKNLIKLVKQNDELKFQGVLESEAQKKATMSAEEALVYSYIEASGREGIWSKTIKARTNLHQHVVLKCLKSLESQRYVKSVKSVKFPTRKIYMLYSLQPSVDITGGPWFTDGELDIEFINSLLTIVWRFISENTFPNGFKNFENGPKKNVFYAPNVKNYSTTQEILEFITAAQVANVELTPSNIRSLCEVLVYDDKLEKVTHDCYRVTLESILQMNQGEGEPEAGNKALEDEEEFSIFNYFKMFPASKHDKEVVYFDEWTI

B1: Rpc31(121-251)-Flag_ΔL165-V185 (protein)
chain: SIDDHPYNLNLFPNELYNVMGINKKKLLAISKFNNADDVFTGTGDDASTGDGAAKGSKTGEGEDDDLADDDFEEDEDEEDDDDYNAEKYFNNGDDDDYGDEEDPNEEAAF
Kd [1]: 1.2 µM

B2: Rpc31(121-251)-Flag_ΔG141-I150 (protein)
chain: SIDDHPYNLNLFPNELYNVMSKFNNADDVFTGTGLQDENIGLSMLAKLKELAEDVDDASTGDGAAKGSKTGEGEDDDLADDDFEEDEDEEDDDDYNAEKYFNNGDDDDYGDEEDPNEEAAF
Kd [1]: 4.4 µM

B3
Kd [2]: 6.1 µM

B4: Rpc31(aa 121–251)_Flag (domain or fragment, S. cerevisiae, UniProt P17890 121-251, looked up)
chain: SIDDHPYNLNLFPNELYNVMGINKKKLLAISKFNNADDVFTGTGLQDENIGLSMLAKLKELAEDVDDASTGDGAAKGSKTGEGEDDDLADDDFEEDEDEEDDDDYNAEKYFNNGDDDDYGDEEDPNEEAAF
notes: Rpc31 of S. cerevisiae, C-terminal aa 121-251; also called Rpc31 C-terminal Ser121-Phe251 peptide; Rpc31 (aa 121–251) peptide; source: E. coli BL21 (DE3) RIL, purified (Ni-Sepharose, SUMO tag removed with Ulp1, second Ni-Sepharose passage, Source15Q); not shown: FLAG, C-terminal, kept
Kd [3]: 0.883 ± 0.339 µM

B5: Rpc31(aa 121–251)_Flag_E183K (domain or fragment, S. cerevisiae, UniProt P17890 121-251, looked up)
chain: SIDDHPYNLNLFPNELYNVMGINKKKLLAISKFNNADDVFTGTGLQDENIGLSMLAKLKELAKDVDDASTGDGAAKGSKTGEGEDDDLADDDFEEDEDEEDDDDYNAEKYFNNGDDDDYGDEEDPNEEAAF
notes: Rpc31 of S. cerevisiae, C-terminal aa 121-251 with E183K; the methods describe only the wild-type construct; also called Rpc31 peptide with a Glu183Lys (E183K) point mutation; source: E. coli, recombinantly expressed and purified; not shown: FLAG, C-terminal, kept
Kd [3]: 8.5 ± 5.6 µM

From publication PMC10201443, “Site-directed biochemical analyses reveal that the switchable C-terminus of Rpc31 contributes to RNA polymerase III transcription initiation” (Nucleic Acids Research, 2022)
